Several values for one entry are separate records, joined by “and”; a condition that tells them apart may be missing. Equal values may be shown once.
Experiments:
[1] = stated, literature or standard value; cited from earlier work
[2] = Isoelectric focusing in the microchannel (microfluidic IEF), position of the focused zone; assay type: physicochemical; conditions: 0.1 mM histidine buffer, initial pH 7.1, 2.5V for 6 minutes
Procedure: Bovine hemoglobin (Hb) was selected as a test case because of its strong absorbance at 550 nm (facilitating observation without need for additional dyes). The pI of Hb is 7.1, as verified by polyacrylamide gel isoelectric focusing run at the same concentration as was used for IEF in the microchannel. […] A voltage of 2.5V (resulting in a current of 5 μA) was applied for 6 minutes. Two zones of higher optical density close to the electrodes were formed within 15 s. They moved towards each other meeting to form one dark zone after 5 minutes. Even with a relatively high concentration of Hb (1.55×10^−4 M), the darker zones and their migration were barely visible in color images. Normalized plots of green pixel values vs. position allowed monitoring of Hb migration. The position of the final focused zone of Hb in the microchannel corresponded to a pH of 7.1±0.3 on the basis of previous results with acid-base indicators under similar conditions (FIG. 8). The pI value determined by IEF in the microchannel was within experimental error, identical to that in the literature and that determined by our gel IEF experiment.

[3] = Isoelectric point by polyacrylamide gel isoelectric focusing, compared with positions of standards; assay type: physicochemical; conditions: constant voltage, mini IEF cell
Procedure: The isoelectric points (pI) of proteins were determined experimentally by polyacrylamide gel isoelectric focusing, using the procedure specified by BiORad Laboratories, Inc. (Hercules, Calif.). A mini IEF cell (Model 111) purchased from BiORad equipped by two graphite electrodes was employed for this purpose. Focusing was carried out under constant voltage conditions (Power Pac 1000, BiORad).
(§1) Isoelectric points of proteins were determined by comparison with positions of standards.

[4] = Stability of the fluorescence of the BSA conjugate over a broad range of pH values; assay type: physicochemical; conditions: pH 2.5 to 10.0, 1.52 μM, excitation 495 nm, every 30 minutes for 4.5 hours
Procedure: as §1
The fluorescence of the BSA-Bodipy FL conjugate is reported to be insensitive to pH between 4 and 8. […] A fluorescence spectrum from 500-550 nm for an excitation wavelength of 495.0±2.5 nm was recorded for each of the solutions immediately after its preparation and then after each 30 minutes for 4.5 hours.

| Molecule | isoelectric point (pI) [1] | pH corresponding to the position of the final focused zone in the microchannel [2] | pI determined by polyacrylamide gel isoelectric focusing [3] | change of fluorescence over time [4] |
| --- | --- | --- | --- | --- |
| N[C@@H](Cc1c[nH]cn1)C(=O)O [histidine] | 7.4 | – | – | – |
| Bovine hemoglobin: bovine hemoglobin (Sigma), test analyte for isoelectric focusing | 7.1 | 7.1±0.3 | 7.1 | – |
| human hemoglobin A: pI standard in gel isoelectric focusing | 7.1 | – | – | – |
| phycocyanin | 4.65 | – | – | – |
| BSA conjugate: fluorescent bovine serum albumin (BSA)—Bodipy FL conjugate (Molecular Probes) | – | – | 4.6±0.1 and 4.65 | did not significantly change |

Source: US20040256230A1, “Microfluidic devices for transverse electrophoresis and isoelectric focusing” (University of Washington, priority 1999, published 2004)
